# In the supplement of paper PMC12042874:
# ± gives the uncertainty stated by the source.
# Test: amyloid nucleation score (Sup35N fusion, yeast selection) (log enrichment); library NNK3; higher = more nucleation; inactive = no reads after selection
# How it was run: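 The nucleation score is the log enrichment of output over input reads, calculated with DiMSum and centred on the mode score of non-aggregating sequences. Sequences with under 100 input reads were excluded. Reads came from Illumina sequencing of plasmid inserts from psi-negative yeast expressing Sup35N fused to peptides of 20 random codons, induced 24 hours with 100 μM copper sulfate and grown 7 days at 30°C without adenine and uracil.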
row,Substance,amyloid nucleation score
1,TGCPWIRTVNPVVPWVCEHR,inactive
2,WAAWFYASGVRASEGRDYGG,inactive
3,VKDSLMGCKIPCN,inactive
4,SEFCSNFNQFGC,inactive
5,LLFML,inactive
6,ISHCMVLRNA,2.49 ± 0.086
7,LFLVIYYVFMYVA,inactive
8,MYQMSTVKRRRVGGSNDMCV,inactive
9,YKSPFTGNCLYTVVIKDINL,1.55 ± 0.085
10,DSFAGVRLGVHASNILIHGQ,inactive
11,INWLWFLMHIIQI,inactive
12,ICEVNCGLVIWWVRRFEGAS,inactive
13,YGFRRTACMCL,inactive
14,PYFTDAFVNEMDMQCH,inactive
15,PVVTVHAWHRFNMHL,inactive
16,NMVPNCDLLMKSRLKVSNSA,inactive
17,IFVLDASMVMSFYVSVDASS,0.989 ± 0.093
18,KLCGHIIYCVV,inactive
19,GIVSYCICIFGNFQK,2.64 ± 0.064
20,TYISF,inactive
21,WNFYGWRVLSHRRTGSVHRL,-0.847 ± 1.4
22,TVIVCVTFLRGWVSSACGLS,0.045 ± 0.8
23,TSGHLVLGGYLSNQVKSVFR,0.605 ± 0.24

row,Substance,amyloid nucleation score
1,YASDWVRRPGRN,inactive
2,VVSSRLDAALDCWVREDCGV,inactive
3,QYVYLCRYLNMRPACYDMVV,-0.329 ± 0.8
4,IPVAIMLS,inactive
5,MRLMVWESLR,1.6 ± 0.097
6,WFFETQLSLWWVNGQDLAEV,inactive
7,TWFLTPLNTFIFLLVPLFGL,inactive
8,SINGRDSQG,inactive
9,CLVWG,inactive
10,FSGTIGILFFMTWSTVLPWG,inactive
11,SGGLRLLGKSLLWTAVCTNT,inactive
12,SYSNDHAFVSRVAGCNIC,1.53 ± 0.1
13,YKIYIFFGTVYMGVDRDQIG,2.89 ± 0.063
14,NLGTATLHLSYYMDPLTT,inactive
15,MGKTRLADLRVYRTVWLFSR,inactive
16,SDCSIHKSGYVTDTACDVFD,inactive
17,CMLDKSAIIMTRMECIVLSY,inactive
18,AGNLLARPSLQKGCLLDELP,-0.73 ± 1.7
19,RLDVFYEMLIMYKEQYGMVR,inactive
20,GSLVRV,inactive
21,YVQSLNR,inactive
22,FLLMC,inactive
23,AIVFNFDYLLYLQNRSNLMH,inactive

row,Substance,amyloid nucleation score
1,HYRIESTVLE,-0.772 ± 0.8
2,FYNFWWCI,1.87 ± 0.064
3,LTIRPFEVGRESESGFVLIS,inactive
4,GVGCTKSECRSICMPKHP,inactive
5,VDEDQLRHMWVHSD,inactive
6,YRFYLVSVVFKTDEVARKSE,inactive
7,SLLALNRSPVLMRYISEHCN,inactive
8,RPKTTH,inactive
9,FSCDIMRPTKLGYSFDGLLL,inactive
10,RSVNGVTLGTARYHAVERVL,inactive
11,ILRFFVCLSHKNVDFICSAR,inactive
12,FIALIYVIIPDIEGSVYVSN,inactive
13,SNLHMILDGWEMCALHAAMG,inactive
14,KPCSLIRWPIKASMFSYVHS,inactive
15,RSYGR,inactive
16,SWYDVRSVPKSMVAMMGWRL,inactive
17,LVHIGFWCEVVQPLSCTDTS,0.028 ± 0.65
18,EKCWFQVCCTRSLGKSGIIC,inactive
19,SLGRFDLMCHTKYLSTTVVF,inactive
20,LLHTQMALGSLCVGYKIWLG,inactive
21,FSSIMSFVVYSRKLLEVTSP,inactive
22,RDRQFSSSDVPGCEVTGRTD,1.04 ± 0.12
23,PCGVEMLWFKG,inactive

row,Substance,amyloid nucleation score
1,ELRCFTQIGLGSCYRFIGYI,0.371 ± 0.74
2,TVLITIIFTSRGVAVRKS,-1.19 ± 1.9
3,YGLVLGFRRTGYTCDDSLNW,inactive
4,SLMEGYSFSVPRSASRCSSQ,inactive
5,MWVLSV,inactive
6,MSFMTDLNPTFLFMLIG,inactive
7,QSYVFVVLTPWVSRCGIGLA,inactive
8,YSLCLGIAHVRMSTARYYLA,inactive
9,RCTGRLRTVGRSSMLEFEFV,inactive
10,CVPGYGYRLNYSL,inactive
11,SMFCMVSFMMW,-0.071 ± 0.22
12,GVLSLLFSYIIVYEWKEMGN,inactive
13,FLLGPSLTPNSMG,inactive
14,SNRNRTTNMNHEPLANYSFN,inactive
15,GKIFMSVTFF,2.43 ± 0.054
16,ACTCDRAGDRLVVWLLDGYL,inactive
17,FYRFISAMFYDWDSWIICGN,0.674 ± 0.12
18,MNEGQSYYKVVITPELLAAR,-0.545 ± 0.96
19,MWGVCSFFAFPHIIFM,1.33 ± 0.11
20,AYAIGHEDCEVYQLLVKLLG,inactive
21,SFKSTSYIITFNWKIVAVWK,inactive
22,LCLGFVHPVIPFWIAML,inactive
23,AKSMVWNGGVWYLFQEYARG,inactive

row,Substance,amyloid nucleation score
1,YLCIKNRLDKDRSW,inactive
2,CMFRLMIPSIKTNAISIALC,0.068 ± 0.9
3,ISSRSGHVVMSFVCATLRNL,inactive
4,VFVAMNVFMVWICRLQGSLT,0.508 ± 0.33
5,SFERSSSSST,inactive
6,NDFCLIYYICGS,0.743 ± 0.17
7,RFACFSRGACFCNRLVMPYD,inactive
8,YLRWLLFYS,inactive
9,AGYGSVSRLSMEKMEFNQ,inactive
10,LRTLALPSSVFVRDVHYY,0.987 ± 0.15
11,RKIHVAMVLRIEYSMYGSPA,inactive
12,VQDPDL,inactive
13,DNLQVTRCYLADWMSSVT,inactive
14,RLVRIW,inactive
15,GSVGILHFGKYHSIVYSACN,inactive
16,FLSFSFYLVYRRKSVRFQ,inactive
17,VGNQKIIMRGALELDRELTC,inactive
18,PPSISSPFALRVFTFVLRY,inactive
19,LYDTDSCLSSYCSPFRHPRY,inactive
20,RSVQSVFNTIGCQTYVSPVW,inactive
21,RGQFICRCGVARPV,inactive
22,LVFPPAY,inactive
23,EYGALSTFLRG,-0.337 ± 0.9

row,Substance,amyloid nucleation score
1,SWYEYCLINSLRKGSGYKEP,inactive
2,MMMQLNGVHMV,inactive
3,FMYRTDRYHVRGVITWRLSM,inactive
4,YLMSYGRWDRWKWWYFYRLW,inactive
5,HVTIYGPET,inactive
6,PSLRLQTTDILHKNSNY,inactive
7,AVRSFLTWISMN,inactive
8,TPNARSNPSNRPVSSTRARS,inactive
9,GWRCCWIIWADAVYE,3.05 ± 0.075
10,NRPSMSRGVDTRLMSLHETL,inactive
11,LMQFLAQLTSLSLSLLEVIW,inactive
12,GYKGR,inactive
13,LCVIVTAVKGFTVPWHNFFL,inactive
14,LLTFSH,inactive
15,LAIYTVRSQFKVMCGVQSIR,0.85 ± 0.16
16,GLMERNDMSEYSSAG,inactive
17,ETLGFVSMCHDSLMHNH,inactive
18,NMQGLRFSRKCCEHRGFYIC,inactive
19,LFWYTAH,-0.361 ± 0.38
20,YSLCACSYYVNVVNNRVVSV,1.39 ± 0.073
21,GSIVFGCSWASQSVCQDQWV,inactive
22,RRYYLRV,inactive
23,QIVRYASSQCDCRNFLSTVE,inactive

row,Substance,amyloid nucleation score
1,SFFVT,inactive
2,MHLEYGVFIDARATYML,1.49 ± 0.12
3,SLSIVETIGVCL,inactive
4,ARSDGA,inactive
5,GGALAKNHILCR,inactive
6,GFSTYRIKIVYDVNMY,inactive
7,WGCYSWTMVRS,1.33 ± 0.16
8,VLLIWIIVPTWF,0.5 ± 0.14
9,RYKEFVGNSIRIPDTCLSCC,inactive
10,MCYALMRTTWCGKLKIVLSG,inactive
11,YRYCINVTKYHLLQ,inactive
12,DDDRGGSTMTATHRRRMWHL,inactive
13,SHVHLDSSRKRHIDLTNALR,inactive
14,GCSLGTHSVTLTFM,inactive
15,FTSLLAVYSIPLQWGATT,inactive
16,GSVFTRFVSREVFCWDACCR,inactive
17,DIIVKQLPKRYGPTMSIRNM,-0.057 ± 0.58
18,NSDFLSTVGYEGLLHTQGCA,inactive
19,YVLCFVVELWIGFSDDWISW,inactive
20,CNLRMCNGA,inactive
21,VLYYCGFSITARKSEKLVWP,inactive
22,FRNCRSWATCTAKARLHCPS,0.812 ± 0.16
23,NSCLV,inactive
